Data: patent publication US20210155689A1 (SHANGHAI PHARMAEXPLORER, published 2021)
Changes are numbered by the printed parent chain.

T1: LAG-3-hFc protein (human LAG-3 extracellular region with hFc tag) (human, UniProt P18627 23-450)
T1 construct: also called hLAG-3-hFc; LAG-3 protein; not shown: human IgG Fc fragment (hFc) of the pCpC vector
T1 sequence: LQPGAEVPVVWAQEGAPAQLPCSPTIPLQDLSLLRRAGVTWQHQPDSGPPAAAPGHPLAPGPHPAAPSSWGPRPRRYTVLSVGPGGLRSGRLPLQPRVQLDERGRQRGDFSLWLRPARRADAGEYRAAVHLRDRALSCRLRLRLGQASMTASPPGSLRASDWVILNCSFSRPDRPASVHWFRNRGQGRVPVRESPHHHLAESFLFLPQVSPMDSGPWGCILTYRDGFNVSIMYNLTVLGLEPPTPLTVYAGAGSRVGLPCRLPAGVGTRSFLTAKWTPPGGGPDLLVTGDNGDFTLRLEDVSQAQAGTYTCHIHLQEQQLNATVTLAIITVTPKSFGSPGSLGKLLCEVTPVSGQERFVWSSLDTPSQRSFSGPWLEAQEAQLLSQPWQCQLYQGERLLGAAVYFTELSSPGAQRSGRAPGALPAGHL

T2: monkey LAG-3 on cells (HEK293-cLAG-3 stable cell line) (monkey, UniProt P18627 24-525 (human entry))
T2 construct: Full-length monkey (Chinese monkey) LAG-3 gene expressed on HEK293 cells
T2 chain: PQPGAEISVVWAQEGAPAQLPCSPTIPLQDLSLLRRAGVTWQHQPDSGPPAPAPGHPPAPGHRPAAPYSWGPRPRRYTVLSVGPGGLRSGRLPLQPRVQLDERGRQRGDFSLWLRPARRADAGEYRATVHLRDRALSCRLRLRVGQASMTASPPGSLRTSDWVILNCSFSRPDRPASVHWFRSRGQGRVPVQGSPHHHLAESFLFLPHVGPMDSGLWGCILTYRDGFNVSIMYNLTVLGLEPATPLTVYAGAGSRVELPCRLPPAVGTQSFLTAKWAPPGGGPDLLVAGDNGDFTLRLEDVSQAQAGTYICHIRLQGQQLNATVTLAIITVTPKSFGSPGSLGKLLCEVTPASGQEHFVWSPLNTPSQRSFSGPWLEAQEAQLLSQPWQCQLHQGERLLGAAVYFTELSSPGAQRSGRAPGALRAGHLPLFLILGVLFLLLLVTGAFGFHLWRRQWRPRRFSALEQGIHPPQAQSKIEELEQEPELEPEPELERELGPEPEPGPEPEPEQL

T3: human LAG-3 protein with hFc tag (hLAG-3-hFc protein) (human, UniProt P18627 23-450)
T3 construct: also called immunogen 1; LAG-3 extracellular domain protein; not shown: human IgG Fc fragment (hFc) of the pCpC vector
T3 sequence: T1 sequence

B1: 556F6B8 mouse-human chimeric antibody (antibody, V domains shown)
VH: RVQLKQSGPGLVQPSQSLSITCTVSGFSLIKYGVHWVRQSPGEGLEWLGVIWRGGITDYNAAFMSRLSITKDNSKSQVFFKMNSLQADDTAIYYCAKWDGPLAMDYWGQGTSVTVSS
VL: DIVMTQSHKFLSTSVGDRVSITCKASQDVGTTVAWYQQKPGQSPKLLIYWASTRHTGVPDRFTGSGSGTDFTLTISNVQSEDLADYFCQQYSSYPYTFGGGTKLEIK
notes: also called mAb123-556F6B8; 556F8B8
B2: 105F1E10 mouse-human chimeric antibody (antibody, V domains shown)
VH: EVQLQQSGPELVKPGASVKMSCRASGYTFTDFKMHWMKQSHGKSLEWIGYIAPNNGGTAYNQKFRGKATLTVNESSNTAYMELRSLTSEDSAVYYCVDWDDVDYWGQGTTLTVSS
VL: DIKMTQSPSSMYASLGERVTITCKASQDINSYLSWFQQKSGKSPKTLIYRANRLVDGVPSRFSGSGSGQDYSLTISSLEYEDMGIYYCLQYVEFPLTFGAGTKLELK
notes: also called mAb009-105F1E10
B3: 405B8H3 mouse-human chimeric antibody (antibody, V domains shown)
VH: QVQLQQSGAELVRPGASVTLSCKASGYTFTDYEMHWVKQTPVHGLEWIGATDPETGNSAYNQKFKGKAIMTADKSSSTAYMELRSLTSEDSAVYYCISTGWNDWGQGTSLTVSS
VL: B2 VL with S40P, N52D, V55L, E81G, V92D, L96Y, A100G, L106I
notes: also called mAb103-405B8H3
B4: 409D4E10 mouse-human chimeric antibody (antibody, V domains shown)
VH: B3 VH with Y27N, G56D, S58T, M70L, A72T, S98T, T99S
VL: B2 VL with S40P, V55L, V92N, L96Y, A100G, L106I
notes: also called mAb112-409D4E10
B5: 409B11E12 mouse-human chimeric antibody (antibody, V domains shown)
VH: B3 VH with P41T, G56S, N57Y, M70L, S98A
VL: B2 VL with I2L, S40P, V55L, V92D, L96Y, A100G, L106I
notes: also called mAb104-409B11E12
B6: 556F6B8 (mouse antibody purified from hybridoma) (antibody, V domains shown)
VH: B1 VH
VL: B1 VL
notes: also called mAb123-556F6B8
B7: 405B8H3 (mouse antibody purified from hybridoma) (antibody, V domains shown)
VH: B3 VH
VL: B2 VL with S40P, N52D, V55L, E81G, V92D, L96Y, A100G, L106I
notes: also called mAb103-405B8H3; 405B81-13
B8: 105F1E10 (mouse antibody purified from hybridoma) (antibody, V domains shown)
VH: B2 VH
VL: B2 VL
notes: also called mAb009-105F1E10
B9: 409B11E12 (mouse antibody purified from hybridoma) (antibody, V domains shown)
VH: B3 VH with P41T, G56S, N57Y, M70L, S98A
VL: B2 VL with I2L, S40P, V55L, V92D, L96Y, A100G, L106I
notes: also called mAb104-409B11E12
B10: 409D4E10 (mouse antibody purified from hybridoma) (antibody, V domains shown)
VH: B3 VH with Y27N, G56D, S58T, M70L, A72T, S98T, T99S
VL: B2 VL with S40P, V55L, V92N, L96Y, A100G, L106I
notes: also called mAb112-409D4E10

The binders below were run against T1, LAG-3-hFc protein (human LAG-3 …) (assay: FACS, inhibition of LAG-3-hFc binding to MHC II on Raji cells, antibody 22.222 nM).
Procedure: (§1) The FACS reaction plate incubating the Raji cells was centrifuged to discard the supernatant. The above mixture was added as 100 μl per well to Raji cells and incubated on ice for 1-2 hours. The plate was washed twice with blocking solution (PBS, 2% fetal bovine serum) by centrifugation, added with 100 microliters of fluorescent (Alexa 488)-labeled secondary antibodies per well, and incubated on ice for 1.0 hours. The plate was washed 2-3 times by centrifugation with blocking solution (PBS, 2% fetal bovine serum), added with 100 microliters of PBS per well to suspend cells, and detected using FACS (FACS Calibur, BD) and the results were analyzed. Wherein, the IgG control was murine IgG, and the data in the table is the inhibition rate (%).
For B1, the “Inhibition rate (%)” value was 95.8%. For B2, the “Inhibition rate (%)” value was 95.8%. B3 was tested, and the “Inhibition rate (%)” value was 95.7%. For B4, the “Inhibition rate (%)” value was 95.7%. For B5, the “Inhibition rate (%)” value was 95.6%.

Target: T2, monkey LAG-3 on cells (HEK293-cLAG-3 …)
Assay: FACS, HEK293-cLAG-3, antibody 0.000 nM
Source text: The pIRES plasmid with the monkey-derived full-length gene was transfected into the HEK293 cell line to construct a HEK293 stable cell line containing monkey LAG-3 (herein referred to as HEK293-cLAG-3 stable cell line). The HEK293-hLAG-3 stable cell line and HEK293-cLAG-3 stable cell line were expanded in a T-75 cell culture flask to a 90% confluence. The medium was aspirated, and the cells were washed with HBSS (Hanks' Balanced Salt Solution) 1-2 times, then treated with a enzyme-free cell dissociation fluid (Versene solution: Life technology) and the cells were collected. The cells were washed with HBSS buffer for 1-2 times. After counted, the cells were diluted with HBSS to 1-2×10⁶ cells per ml, added with 1% goat serum blocking solution, incubated on ice for 20-30 minutes, and then washed with HBSS for 2 times by centrifugation. The collected cells were suspended in the FACS buffer (HBSS+1% BSA) to 2×10⁶ cells/ml, added as 100 microliters per well to a 96-well FACS reaction plate, added with 100 microliters per well of the antibody sample to be tested, incubated on ice for 1-2 hours. The plate was washed twice with the FACS buffer by centrifugation, added with 100 microliters of fluorescent (Alexa 488)-labeled secondary antibodies per well, and incubated on ice for 0.5-1.0 hours. The plate was washed 2-3 times with FACS buffer by centrifugation, added with 100 μl fixative solution (4% Paraformaldehyde) per well to suspend the cells. 5-10 minutes later, it was washed 1-2 times with FACS buffer by centrifugation. The cells were suspended with 100 microliters of FACS buffer, FACS (FACSCalibur, BD) was used for detection and the results were analyzed.
B1 was tested, and the Mean fluorescence intensity was 3.1. For B2, the Mean fluorescence intensity was 2.72. Work on B3 yielded a Mean fluorescence intensity of 2.9. Work on B4 yielded a Mean fluorescence intensity of 2.99. For B5, the Mean fluorescence intensity was 2.84.

Each binder was assayed against T3, human LAG-3 protein with hFc tag … (assay: FACS, blocks LAG-3-hFc binding to MHC II on Raji; 66.667 nM).
Procedure: as §1
For B6, the “Inhibition rate (%)” value was 95.9%. In the case of B7, the “Inhibition rate (%)” value is reported as 94%. With B8 the “Inhibition rate (%)” value was 93.6%. B9 was tested, and the “Inhibition rate (%)” value was 95.5%. In the case of B10, the “Inhibition rate (%)” value is reported as 96%.

Each binder was assayed against T3, human LAG-3 protein with hFc tag … (assay: FACS, blocks LAG-3-hFc binding to MHC II on Raji; 0.823 nM).
Procedure: as §1
B6 was tested, and the “Inhibition rate (%)” value was 20.1%. For B7, the “Inhibition rate (%)” value was 10.9%. In the case of B8, the “Inhibition rate (%)” value is reported as 7%. With B9 the “Inhibition rate (%)” value was 15.3%. B10 was tested, and the “Inhibition rate (%)” value was 18.2%.

Each binder was assayed against T1, LAG-3-hFc protein (human LAG-3 …) (assay: FACS, inhibition of LAG-3-hFc binding to MHC II on Raji cells, antibody 7.407 nM).
Procedure: as §1
B1 was tested, and the “Inhibition rate (%)” value was 82.7%. With B2 the “Inhibition rate (%)” value was 67%. For B3, the “Inhibition rate (%)” value was 95.1%. For B4, the “Inhibition rate (%)” value was 94.7%. With B5 the “Inhibition rate (%)” value was 95.1%.
